Results reported in the DeepSol protein solubility set.

Assay: soluble on expression in E. coli; label from the status in PepcDB or PDB records

| Sequence | soluble on expression in E. coli |
| --- | --- |
| SLSTIGSMMSIYSEAGDFGNIFVTGRIAFSLKYEQQTQSLVVHVKECHQLAYADEAKKRSNPYVKTYLLPDKSRQGKRKTSIKRDTVNPLYDETLRYEIPESLLAQRTLQFSVWHHGRFGRNTFLGEAEIQMDSWKLDKKLDHCLPLHGKISAESPTGLPSHKGELVVSLKYIPASKTPVGGDRKKSKGGEGGELQVWIKEAKNLTAAKAGGTSDSFVKGYLLPMRNKASKRKTPVMKKTLNPHYNHTFVYNGVRLEDLQHMCLELTVWDREPLASNDFLGGVRLGVGTGISNGEVVDWMDSTGEEVSLWQKMRQYPGSWAEGTLQLRSSMAKQKLG | soluble |
| MRNEMHLQFSARSENESFARVTVAAFVAQLDPTMDELTEIKTVVSEAVTNAIIHGYNNDPNGIVSISVIIEDGVVHLTVRDEGVGIPDIEEARQPLFTTKPELERSGMGFTIMENFMDEVIVESEVNKGTTVYLKKHIVKSKRYLEGSSF | soluble |
| MSQLSFADVFNMAREAADNSPVIQAGQQIAEMVPTVQRMMSEQYSRSRFIRVFKDTGRHLGRWEVFSDFLSLAASELDMARIRTPESMENCRKICARYGATDIANMQEMFCLMVCALEAKFHDFLGAIFMELELGDNFRGQYFTPYSVQCLMARMLMPGVRDTIRREGIATVSDPACGAAGMLIAYAECLLEADINPSMHMFGSCIDIDPVAADMAFIQLSLLGIAAEVVTGNTLTMQYRRVRYTPVYYLNAFEKRLADLRRFRAMRDFLRGIQEAA | not soluble |
| MLTYYRDLFSLKLASCLDMEYSSFENATKINFREFFPEARSLTFSKKPDAKQGMQGGGMLKMLIDEKETIFYIKAFTGLNEENAIKLNELVVCKILHRMGKGPNYWFYINNHFSKKAVYMASKEVVGCG | not soluble |
| MGSDKIHHHHHHMESSFEVETRTVFDRYQRQQENDDHIFDRLVSLIEEEYFGLPTGSFRGLDVLDAGCGSNANASWAFLDKGARNVVSLELSNDWMDCARKRLSRFGLRSELVAGSVLDLPFDDFSFDFVHCAGVLPHTSNPKKGFEELARVTRPGGSFFLTIMGTANGVIYRCINHLRELYQSDEQFRSSIDNLDASTAREAINWLLRIKDGEEKEYIPGENEFFRSLFDDDLFVTIRDRFQAPTYHEFAFTEAQIRGWYGECGFEKIRRISRYTKNFHNLRRFLAPMYRHYDHPLARFWFGDGCIQMIGEKPST | not soluble |
| MSLNKYLEQLVLLSKIDQEIDSYEPKIDSINKTLKDAELKIEKINADLEKIDEEIKDIENQKIQNNAHISEFSAKIKDLSKKSGVVKTEKEANALKIEEDIAKEQLDAANDEIVRLDKILENKETYKKELEEEKIKQEQNINEIRVSIKSEMEVLEKDRMSVYDKKTKLVSEMNQKVLSFYEKIRKWAKNTAVVPVKKQACYGCFMKIYDKTYLSVVKGEEIVTCPHCGRILYKEQEEQNEGHHHHHH | soluble |
| MGTGSGGPIGVSPFHSRGALKGFVISGRWPDSTKEWAQLLMVAVRVASLPGLLSTTTVFGAREELPDEPEPGTVGLVLAEGTVFGESAIQPGYFADHQPPALLMLHPPSETTPSLPECTGAASGCVLLPGLPYLGLEHRAAWVEAEADGTITSMVSRVGVDPISHPDTAILAMLLAA | soluble |
| MLEFETNIDGLASIKVIGVGGGGNNAVNRMIENEVQGVEYIAVNTDAQALNLSKAEVKMQIGAKLTRGLGAGANPEVGKKAAEESKEQIEEALKGADMVFVTAGMGGGTGTGAAPVIAQIAKDLGALTVGVVTRPFTFEGRKRQLQAAGGISAMKEAVDTLIVIPNDRILEIVDKNTPMLEAFREADNVLRQGVQGISDLIATPGLINLDFADVKTIMSNKGSALMGIGIATGENRAAEAAKKAISSPLLEAAIDGAQGVLMNITGGTNLSLYEVQEAADIVASASDQDVNMIFGSVINENLKDEIVVTVIATGFIEQEKDVTKPQRPSLNQSIKTHNQSVPKRDAKREEPQQQNTVSRHTSQPADDTLDIPTFLRNRNKRG | soluble |
| MNETEFYAYHIVTRKKMHIGQMIPFNKNQHNTLYHFFFEREQLNANGEDGIQILNNHYKNDELHINNENAKVVISYMDQTIRAARETIVEMVRLQEFPEYPSRLSCLYAAKSYEDALKWKALFDSYNREVLQIVKLRVIGSSFEGDGNLLPKEDGIPFSQKIEQARKYWKGNIRNELPELLINGEIEVVEIIDDFSSIHI | soluble |
| GNLSFLATSDGASLAYRLDGAAEKPLLALSNSIGTTLHMWDAQLPALTRHFRVLRYDARGHGASSVPPGPYTLARLGEDVLELLDALEVRRAHFLGLSLGGIVGQWLALHAPQRIERLVLANTSAWLGPAAQWDERIAAVLQAEDMSETAAGFLGNWFPPALLERAEPVVERFRAMLMATNRHGLAGSFAAVRDTDLRAQLARIERPTLVIAGAYDTVTAASHGELIAASIAGARLVTLPAVHLSNVEFPQAFEGAVLSFLGA | not soluble |
| SLSIELDLQLAVENEHGLPSEAEFALWLTRTITPFQAQAEVTVRIVDEAESHALNLNYRGKDKPTNVLSFPFEAPSGMEMDLLGDLVICRQVVEREAIEQNKPLQAHWAHMVVHGSLHLLGYDHIEDDEAEEMESLETEIMQEMGFTDPYLAEKE | not soluble |
| MGSDKIHHHHHHMDYYAGIDVSLELSSVCIVNQDGKIFREVKVASDPEALIGLFGGLGVALSRIGLEAGPLSQWLHAGLTAGGYDVVLLETRHVKAGLSAMTVKTDRKDARGIAHLLRMGWFRPVHCKTNSAQEIRVLLVGRKLLQSKMGDLEQGIRGLLRGFGLKVGVISKGRFAARIRELVAGQAMLETVAEPMLRARDALRAEFTLLHRQILAIVRKDDLCRRLMTVPGVGPLVALTFKSGIDDPSRFTSSKTVGAHFGLTPKKYQSGETDITGGITRTGDAMVRMALYEAAQVLLTRSQRFSSLKRWALEVAKRRGMKRAKVALARKLATVLHRMWIDGSDFRWGKEITSA | not soluble |
| MGSDKIHHHHHHMIKMRIKPLEEYRIGLRQSSGIVIENVDVISAFPSPTTILGIIGAMKNAKPSQLSGIDDLREAYTSLTGNNTLSGDCDSSDNPLIWGPLIKEKDNKIYTPLFFNKLILDPIEYVKTSLNENVKVQSESLVKEIGIQIRRMNQMNRGSRNTIHLFYQKFFGSNYELEYCINIDDLKKLVKENVVALGGENRYARVRIDNGNCNFGNGNYAILLQPLLFESDSEYFVRLDNVKGLGCIDEIYGVLVEKGNKIDFNNFKVKVVYYALGYGNERRPMLQALPPGTVIKVKETCNNAKALGLLSELGFGAIYRVDPGNR | not soluble |
| MSLDSYRTARLMQEGVTYPVIVRPHNQILENRINRIIRETAEELLPSGRYRTMNIITAASEYETTVNKNEILSIRFENYYYPEMMASGITVVRAVTLNLVTGRRYRLKDLFIPGIDYEDYLNRLIERQIEERDIPLINDFPGITGNEVFYLTEGELVIVYQRYELTPGYYGVLEFEIPYEELQPLIDETSPIYMIAQNSEGHHHHHH | soluble |
| MAHHHHHHMHFSPLVFHIHFTRSFSLFFRFCMQLATREGWWEEGGEKEGVFEGAIEEKTVMSFFFDEDSGDEPATKRHCTEQQQRAQGRPHGGFFNGNGEKDEDEDERPVLARAGSDRVGLRLLQGMQKPTSSSSSVLLSGKEKMRVVEAYVPLSVGGFMESSAETAVDNLSQIKPGNVMCLRSPASSASQASTGMNFVRETDLTEEERRYGKRLSSNMTQELFEVGRVDRDTGMLEAIFLDGTRRNLKAYAVRPAGFVEKELFRQWKRDPNSRPVRTVYAAPQDANASPSLSSTTQTTRTTAVDSAKRKNNTAAVELMPWWVSPQLIVRVVEKSAGDLFGKKFVVKSLSRKEGKIRLAPWQRSAGNGESAENSPVDIVGCEALETIVPKVGEQGIIVLGNMRGELVKVMERHRDVNGELASLKVCSTLTGNEFTVGPHEVCQLACPRP | not soluble |
| MNTGAQIYRNSSSSIDKNIVDRIYKDGFLIAQYGLYMKRERDYKTFKVPVDAGFSCPNKDGTIDTRGCIFCPKMGRPISVEYCNIKYSLKDQIETQVKQNKEKGIGKFYVYFYPGTNTHGTPERLKELWDYALSFEDVIGISIGTRPDCLEDEKLDILENYVKQGYEIWIDLGIQTMHDKTLDFLNRKHSSNDIRRVLIECKKRGILVCGHIILGLPDESWNMMMETSKMLSDLEIDALKIYPLVVIENTELEEIYWKGEYKSLDEKQYIHLVSDFLEHLSPYVIIQRVSKDKVPDEIKISPEWSLRRLRILNEVSKELARRNSKQGSKYKK | not soluble |
| MDEEPERTKRWEGGYERTWEILKEDESGSLKATIEDILFKAKRKRVFEHHGQVRLGMMRHLYVVVDGSRTMEDQDLKPNRLTCTLKLLEYFVEEYFDQNPISQIGIIVTKSKRAEKLTELSGNPRKHITSLKKAVDMTCHGEPSLYNSLSIAMQTLKHMPGHTSREVLIIFSSLTTCDPSNIYDLIKTLKAAKIRVSVIGLSAEVRVCTVLARETGGTYHVILDESHYKELLTHHVSPPPASSSSECSLIRMGFPQHTIASLSDQDAKPSFSMAHLDGNTEPGLTLGGYFCPQCRAKYCELPVECKICGLTLVSAPHLARSYHHLFPLDAFQEIPLEEYNGERFCYGCQGELKDQHVYVCAVCQNVFCVDCDVFVHDSLHCCPGCIHKIPAPSGV | soluble |
| MRILSLILWIAAIVLPVHSASAAPVKMTIVLERQYLDGEMSEEKVTETVDSMTEIWKKYRGWQLVTLDDQTIVFRKTINDISPLLKTNGYFGITDDGTLSIFNGKPDRSSEIIQSFFQIDVQKLESRQQEKLKKGIRVLSKERYEQVIEMYRHFAVVQ | not soluble |
| GVVETPRSALKVTAQPNDVLLGNYVVLSPQTVLKSSKLAPVHPLAEQVKIITHNGRAGGYQVDGYDGRVLLPCGSAIPVPEFQALSESATMVYNEREFVNRKLYHIAVHGPSLNTDEENYEKVRAERTDAEYVFDVDKKCCVKREEASGLVLVGELTNPPFHEFAYEGLKIRPSAPYKTTVVGVFGVPGSGKSAIIKSLVTKHDLVTSGKKENCQEIVNDVKKHRGKGTSRENSDSILLNGCRRAVDILYVDEAFACHSGTLLALIALVKPRSKVVLCGDPKQCGFFNMMQLKVNFNHNICTEVCHKSISRRCTRPVTAIVSTLHYGGKMRTTNPCNKPIIIDTTGQTKPKPGDIVLTCFRGWAKQLQLDYRGHEVMTAAASQGLTRKGVYAVRQKVNENPLYAPASEHVNVLLTRTEDRLVWKTLAGDPWIKVLSNIPQGNFTATLEEWQEEHDKIMKVIEGPAAPVDAFQNKANVCWAKSLVPVLDTAGIRLTAEEWSTIITAFKEDRAYSPVVALNEICTKYYGVDLDSGLFSAPKVSLYYENNHWDNRPGGRMYGFNAATAARLEARHTFLKGQWHTGKQAVIAERKIQPLSVLDNVIPINRRLPHALVAEYKTVKGSRVEWLVNKVRGYHVLLVSEYNLALPRRRVTWLSPLNVTGADRCYDLSLGLPADAGRFDLVFVNIHTEFRIHHYQQCVDHAMKLQMLGGDALRLLKPGGILMRAYGYADKISEAVVSSLSRKFSSARVLRPDCVTSNTEVFLLFSNFDNGKRPSTLHQMNTKLSAVYAGEAMHTAGC | soluble |
| MAHHHHHHMNRKRPRSPAGVQYWLMKSEPNKFSIDDLKKCTRSPWDGVRNYAARNNMKLMKVGDCVLFYHSNAKPSGVVGLASVVKTAYPDHTALDPKSEYYDARASKKNPWEMVDVQFEEKFASIVSLEELKKEKKLQAMQLFSQSRLSVQPVEKSEYDHVVSLGRKK | soluble |
